Measured values reported in paper PMC8396345, “Target Affinity and Structural Analysis for a Selection of Norovirus Aptamers”.

Tests used:
[1] = molecular target: T1, norovirus GI.1 VLP (major capsid protein VP1) (Norovirus GI.1, UniProt Q83884 1-530); assay: filter binding; <10% bound at 1500 nM; FRA: 1 nM 32P-aptamer, 0-1500 nM VLP, 60 min, each aptamer's original selection buffer (M1, M6-2, SMV19, SMV21: PBS pH 7.4; others in Table S1, not in material); FRA temperature not stated; pull-down at room temperature; conditions: protein: recombinant; chain copies: 180; label: 5'-32P (FRA); B-DNA-like CD
T1 sequence (Q83884 whole entry): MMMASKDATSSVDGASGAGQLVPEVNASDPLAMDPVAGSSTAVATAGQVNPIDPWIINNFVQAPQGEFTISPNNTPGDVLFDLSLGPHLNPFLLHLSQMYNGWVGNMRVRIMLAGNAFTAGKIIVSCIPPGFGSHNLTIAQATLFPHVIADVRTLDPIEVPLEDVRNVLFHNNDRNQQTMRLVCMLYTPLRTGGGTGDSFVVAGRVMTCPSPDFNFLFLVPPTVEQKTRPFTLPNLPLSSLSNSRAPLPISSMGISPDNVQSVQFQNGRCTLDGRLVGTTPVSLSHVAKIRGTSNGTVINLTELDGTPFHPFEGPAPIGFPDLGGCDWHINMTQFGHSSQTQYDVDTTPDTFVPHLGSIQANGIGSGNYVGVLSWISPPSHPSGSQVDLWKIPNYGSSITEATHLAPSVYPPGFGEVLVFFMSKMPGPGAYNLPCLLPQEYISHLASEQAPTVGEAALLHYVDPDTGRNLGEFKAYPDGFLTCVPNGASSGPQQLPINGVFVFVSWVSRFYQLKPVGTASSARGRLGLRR

[2] = molecular target: T1, norovirus GI.1 VLP (major capsid …); assay: filter binding; Kd not determined; FRA: 1 nM 32P-aptamer, 0-1500 nM VLP, 60 min, each aptamer's original selection buffer (M1, M6-2, SMV19, SMV21: PBS pH 7.4; others in Table S1, not in material); FRA temperature not stated; pull-down at room temperature; conditions: protein: recombinant, chain copies: 180, label: 5'-32P (FRA)

Binder | binding result ([2]; B-DNA-like CD) | other results
TGGGAAGAGGTCCGGTAAATGCAGGGTCAGCCCGGAGAG (ssDNA) [M6-2] | – | binding result [1]: no binding
GAAATTGGGTTCGGGTTTGGGTTGGGATTACTTAGCGATG (structured_DNA) [Buf-2] | – | binding result ([2]; inter- or intramolecular not resolved): no binding
CCATGTTTTGTAGGTGTAATAGGTCATGTTAGGGTTTCTG (ssDNA) [SMV21] | no binding | –
GTCTGTAGTAGGGAGGATGGTCCGGGGCCCCGAGACGACGTTATCAGGC (ssDNA) [Beier] | no binding | –
CACCAGTGTGTTGAGGTTTGAGCACACTGATAGAGTGTCA (ssDNA) [SMV19] | no binding | –
AG3 (ssDNA) DNA: GCTAGCGAATTCCGTACGAAGGGCGAATTCCACATTGGGCTGCAGCCCGGGGGATCC | no binding | –
TGTTTATGGGGATAAACGTATCTAATTCGTGTACTAATCA (ssDNA) [M1] | – | binding result [1]: no binding
